Paper PMC10814857, “Functional Classification and Interaction Selectivity Landscape of the Human SH3 Domain Superfamily” (Cells, 2024)
Like-named read-outs stand apart in the source and are kept apart here.

Experiments:
Assay in all cases: FP
[1] = biological target: P7, fluorescein-labelled proline-rich peptide from the SOS1 proline-rich domain (human) (UniProt Q07889)
[2] = biological target: P3, fluorescein-labelled proline-rich peptide from the SOS1 proline-rich domain (human) (UniProt Q07889)
[3] = biological target: P4, fluorescein-labelled proline-rich peptide from the SOS1 proline-rich domain (human) (UniProt Q07889)
[4] = biological target: RP1, fluorescein-labelled reference peptide, a SOS1 derivative encompassing part of P3 (human) (UniProt Q07889)
[5] = biological target: P5, fluorescein-labelled proline-rich peptide from the SOS1 proline-rich domain (human) (UniProt Q07889)
[6] = biological target: RP2, fluorescein-labelled reference peptide from the N-terminal extension of the RHO GTPase WRCH1/RHOU (human) (UniProt Q7L0Q8)
Chain of RP2, fluorescein-labelled reference peptide from the N-terminal extension of the RHO GTPase WRCH1/RHOU (human) (Q7L0Q8 whole entry, looked up, the tested form may be a part): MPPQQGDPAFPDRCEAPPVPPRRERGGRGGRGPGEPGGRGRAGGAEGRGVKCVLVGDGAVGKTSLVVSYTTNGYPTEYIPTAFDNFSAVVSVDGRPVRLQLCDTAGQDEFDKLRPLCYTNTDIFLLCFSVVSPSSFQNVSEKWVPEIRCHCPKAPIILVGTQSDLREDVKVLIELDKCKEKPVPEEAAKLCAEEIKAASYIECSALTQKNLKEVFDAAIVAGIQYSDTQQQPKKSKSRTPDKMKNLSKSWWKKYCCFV

[7] = biological target: P1, fluorescein-labelled proline-rich peptide from the SOS1 proline-rich domain (human) (UniProt Q07889)
[8] = biological target: P2, fluorescein-labelled proline-rich peptide from the SOS1 proline-rich domain (human) (UniProt Q07889)

Chain of CRK-1 SH3 domain, GST cleaved (P46108 127-301): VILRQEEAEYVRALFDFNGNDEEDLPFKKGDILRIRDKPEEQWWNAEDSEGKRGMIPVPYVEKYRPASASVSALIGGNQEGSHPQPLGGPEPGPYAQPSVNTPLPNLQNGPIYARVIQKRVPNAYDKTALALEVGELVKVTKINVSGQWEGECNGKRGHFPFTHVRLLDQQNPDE

Kd [3] | Kd [4] | Kd [2] | Kd [6] | Kd [1] | Substance | also measured
60 µM | 11 µM | 15 µM |  |  | GRB2-1 | Kd [5]: 62 µM
6.6 µM | 39 µM |  | 11 µM |  | ITSN1-1 | 
 |  | 18 µM | 21 µM |  | SH3PXD2A-1 | Kd [8]: 44 µM
 |  |  |  | 13.2 µM | SORBS1-1 | 

The next lines start with the substance.

Substance | Kd [3] | Kd [4] | Kd [2] | Kd [6] | Kd [1] | also measured
CRK-1 SH3 domain, GST cleaved (from UniProt P46108) |  |  |  |  |  | Kd ([1]; domain or fragment): 18.1 µM; Kd ([2]; domain or fragment): 12.9 µM
GRB2-2 | 20 µM | 3.4 µM | 12 µM |  |  | Kd [5]: 35 µM
ITSN1-5 | 12 µM |  |  | 23 µM |  | Kd [7]: 23 µM
RIMBP3B-1 |  |  |  |  | 15 µM | Kd [8]: 21 µM
SRC |  |  | 2 µM |  | 13.3 µM | 
